Molecular target: hnRNPA2 WT (human, UniProt P22626-2 1-341)
Assay: EMSA; not given in the material
Conditions: protein: recombinant; tags: N-terminal 6xHis (pET28a)

Chain of hnRNPA2 WT (P22626 other isoform, or with tags, fused parts or gaps): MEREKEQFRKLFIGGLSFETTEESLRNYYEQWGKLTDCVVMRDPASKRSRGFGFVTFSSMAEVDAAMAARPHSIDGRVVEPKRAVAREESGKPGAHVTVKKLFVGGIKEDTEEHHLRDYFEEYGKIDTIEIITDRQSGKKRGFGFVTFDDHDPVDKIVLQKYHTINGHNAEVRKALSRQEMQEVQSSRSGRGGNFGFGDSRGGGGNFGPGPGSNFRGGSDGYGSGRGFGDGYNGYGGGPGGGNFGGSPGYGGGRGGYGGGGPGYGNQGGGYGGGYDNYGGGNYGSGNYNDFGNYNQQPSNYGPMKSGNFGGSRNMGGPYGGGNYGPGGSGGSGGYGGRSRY

B1: single-stranded telomeric DNA probe (ssDNA)
DNA: TTAGGGTTAGGGTTAGGGTTAGGGTTAGGG
B1: binds.
